Values quoted from earlier work as cited in publication PMC8027070.
Where two headings read alike, the source gives them in different places.

Legend:
[1] = target: VIP (Homo sapiens) (UniProt P01282)
[2] = target: PACAP (Homo sapiens) (UniProt P18509)
[3] = target: VIP (Homo sapiens) (UniProt P01282); remark: listed apart in the source
[4] = target: PACAP (Homo sapiens) (UniProt P18509); remark: listed apart in the source
[5] = target: VIP (Homo sapiens) (UniProt P01282); remark: listed apart in the source
[6] = target: PACAP (Homo sapiens) (UniProt P18509); remark: listed apart in the source

UniProt P18509, sequence (P18509 82-129): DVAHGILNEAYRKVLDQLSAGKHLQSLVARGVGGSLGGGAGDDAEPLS
UniProt P01282, sequence (P01282 125-152): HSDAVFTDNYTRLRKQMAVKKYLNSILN

For PAC1 receptor (from UniProt P41586), the Kd [1] is listed as > 500 nM and the Kd [2] is listed as 0.5 nM.

For VPAC1 receptor (from UniProt P32241), the Kd [3] is listed as 1 nM and the Kd [4] is listed as 1 nM.

In the case of VPAC2 receptor (from UniProt P41587), the Kd [5] is listed as 1 nM and the Kd [6] is listed as 1 nM.
